In US20190127470A1 (TRUSTEES OF DARTMOUTH COLLEGE, published 2019) one finds Kd, koff and kon data, which are given here for one molecule.

In the test the target is T1, g2.5-11 scFv-Fc (UniProt P01857-1 1-330 = IgG part).
T1 construct: domain: heavy chain constant regions (CH1-CH3); also called g2.5-3 (identical at the amino acid level); Fg2.5-3
Nature of the test: Octet BLI, scFv-Fc loaded on anti-human CH1 tips, 0-500 nM B7H6-Ig in solution, global fit. The procedure:
Anti-Human CH1 tips were activated with 0.05 mg/mL a2.5-11 scFv-Fc protein for 600 seconds to ensure saturation of tips with […]. Tips were then transferred to PBS+0.1% Tween (PBS-T)-containing wells for baseline measurements of scFv-Fc-loaded tips before transferring to antigen-containing wells ranging from 0-500 nM B7H6-Ig. Samples were double-referenced using non-activated tips and PBS-T only containing wells. The Octet Analysis software was used for global kinetic fits which determine a single KD measurement for each antigen using association and dissociation curves for all concentrations tested.
On the technique in general: In BLI a coated tip is dipped into the sample, and binding shifts an interference pattern.

T1 sequence (P01857 other isoform, or with tags, fused parts or gaps limits assumed): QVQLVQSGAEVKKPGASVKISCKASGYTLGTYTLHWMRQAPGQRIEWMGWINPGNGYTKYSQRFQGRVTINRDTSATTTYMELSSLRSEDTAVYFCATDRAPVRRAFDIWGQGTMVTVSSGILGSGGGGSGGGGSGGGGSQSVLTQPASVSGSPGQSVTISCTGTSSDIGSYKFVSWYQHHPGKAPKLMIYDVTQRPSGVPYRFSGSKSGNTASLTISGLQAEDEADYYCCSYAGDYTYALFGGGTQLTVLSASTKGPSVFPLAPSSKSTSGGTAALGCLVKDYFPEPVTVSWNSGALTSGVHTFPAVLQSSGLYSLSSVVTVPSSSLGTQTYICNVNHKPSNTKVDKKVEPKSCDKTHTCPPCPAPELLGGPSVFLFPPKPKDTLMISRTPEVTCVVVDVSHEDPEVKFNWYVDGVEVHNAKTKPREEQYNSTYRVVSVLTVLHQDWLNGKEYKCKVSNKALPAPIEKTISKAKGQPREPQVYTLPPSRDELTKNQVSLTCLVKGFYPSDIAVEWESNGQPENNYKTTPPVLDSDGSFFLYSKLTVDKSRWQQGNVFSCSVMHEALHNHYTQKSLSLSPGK

B1: B7H6-Ig, a fusion protein containing the extracellular portion of B7H6 and the Fc portion of a Mouse IgG2a (Fc fusion, UniProt Q68D85 25-262, looked up)
chain: DLKVEMMAGGTQITPLNDNVTIFCNIFYSQPLNITSMGITWFWKSLTFDKEVKVFEFFGDHQEAFRPGAIVSPWRLKSGDASLRLPGIQLEEAGEYRCEVVVTPLKAQGTVQLEVVASPASRLLLDQVGMKENEDKYMCESSGFYPEAINITWEKQTQKFPHPIEISEDVITGPTIKNMDGTFNVTSCLKLNSSQEDPGTVYQCVVRHASLHTPLRSNFTLTAARHSLSETEKTDNFS
notes: extracellular domain; also called soluble B7H6-Ig antigen; not shown: Fc portion of a Mouse IgG2a
The Kd is a measure of binding affinity in units of concentration. The term koff denotes a measure of how fast the partners let go of each other. A higher koff goes with fast dissociation. In general, kon refers to a measure of how fast the partners come together. A high value points to fast association. As for B1, the Kd is 25.7 nM, the koff was found to be 0.00035 s⁻¹ and the kon stood at 13700 M⁻¹ s⁻¹.
